{
  "source": "patent US6071709A",
  "about": "“Nerve growth factor/receptor complex” (The United States of America as represented by the …, priority 1992, dated 2000)",
  "molecular_target": "p140^prototrk (Rattus norvegicus, UniProt P35739)",
  "sequence (P35739 33-799)": "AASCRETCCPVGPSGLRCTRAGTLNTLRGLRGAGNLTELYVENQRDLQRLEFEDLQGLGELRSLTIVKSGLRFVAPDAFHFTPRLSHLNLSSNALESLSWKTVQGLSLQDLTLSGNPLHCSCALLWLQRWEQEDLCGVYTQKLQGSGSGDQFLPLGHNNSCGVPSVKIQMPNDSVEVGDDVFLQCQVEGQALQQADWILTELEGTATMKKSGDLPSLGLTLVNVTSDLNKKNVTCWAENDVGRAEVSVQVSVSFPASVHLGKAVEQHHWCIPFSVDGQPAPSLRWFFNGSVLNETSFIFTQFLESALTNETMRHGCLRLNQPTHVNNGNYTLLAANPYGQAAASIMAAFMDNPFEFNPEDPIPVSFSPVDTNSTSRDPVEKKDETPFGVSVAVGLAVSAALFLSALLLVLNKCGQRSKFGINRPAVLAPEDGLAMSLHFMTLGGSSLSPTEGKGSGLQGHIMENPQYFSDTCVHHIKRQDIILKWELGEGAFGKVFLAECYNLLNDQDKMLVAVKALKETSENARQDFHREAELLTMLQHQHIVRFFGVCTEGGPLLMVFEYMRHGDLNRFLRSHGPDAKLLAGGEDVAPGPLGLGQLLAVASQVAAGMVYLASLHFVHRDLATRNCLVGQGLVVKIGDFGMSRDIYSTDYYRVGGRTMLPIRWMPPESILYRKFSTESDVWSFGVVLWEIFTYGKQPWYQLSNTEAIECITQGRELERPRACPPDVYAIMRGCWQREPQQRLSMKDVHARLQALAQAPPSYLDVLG",
  "test": "NGF-dependent trk tyrosine phosphorylation in NR18 cells (PC12 derivative)",
  "type": "cell-based",
  "parameters": "the phosphorylation state of the trk receptor on the NR18 cell line; endogenous in cells; host or cells: NR18 cells",
  "settings": "100 ng/ml NGF for 5 min",
  "source_text": "FIGS. 4A-B show NGF-dependent tyrosine phosphorylation of gp140trk in the human neuroblastoma cell lines LA-N-5, SY5Y, and dorsal root ganglia from mouse embryos. FIG. 4A, gp140trk was immunoprecipitated from untreated (-) or NGF treated (+) LA-N-5 cells (K. H. Sonnenfeld and D. N. Ishii, J. Neurosci. Res. 8:375-391 (1982)), SY5Y cells (K. H. Sonnenfeld and D. N. Ishii, (1982)), NR18 cells (M. A. Bothwell et al., Cell 21:857-866 (1980)), or PC12 cells. Immunoprecipitates were probed with P-tyr antibodies. The differences in trk protein mobilities are due to differences in glycosylation. FIG. 4B, Tyrosine phosphorylation of gp140trk in DRGs from 13.5 day or 14.5 day embryonic mice. DRGs were maintained in 100 ng/ml NGF for ≥10 min prior to lysis and immunoprecipitation with trk antibodies. trk immunoprecipitates were probed with P-tyr antibody. Tyrosine phosphorylated gp140trk from NGF-treated (+) PC12 cells or untreated (-) PC12 cells is shown for comparison. Samples were normalized for cell protein. Molecular weight markers in kDa are indicated.\nCell lines were treated with 100 ng/ml NGF for 5 min and gp140trk immunoprecipitated as in FIG. 1. DRGs were prepared by dissection for 13.5 or 14.5 day mouse embryos. […] Lysates were immunoprecipitated with trk antibody and the trk proteins were analyzed by antiphosphotyrosine immunoblots. […]",
  "data": [
    {"substance": "NGF: neurotrophic polypeptide factor, nerve growth factor; ligand of trk proto-oncogene receptor", "values": [
      {"measurement": "p140^prototrk phosphorylation in response to NGF", "value": "no phosphorylation"}
    ]}
  ]
}
